This is an account of results in patent US20210388079A1 (published 2021).

The target in assay [1] is T1, Serine protease inhibitor Kazal-type 2 (SPINK2); peptide SPINK2-001 peptide on HLA-A*02:01 (human).
T1 peptide: ALSVLRLAL
The assay is described as follows: IFNγ release; T2 cells loaded with 10 µM to 10 pM peptide (FIG. 27); full-length, on cells.

Assay [2] addresses T1, Serine protease inhibitor Kazal-type 2 …. Description: IFNγ release; T2 cells loaded with 10 µM to 10 pM peptide (FIG. 28); full-length, on cells.
Assay [3] shares this target. Description: IFNγ release; T2 cells loaded with 10 µM to 10 pM peptide (FIG. 23); full-length, on cells.
The target is the same in assay [4]. The assay is described as follows: IFNγ release; T2 cells loaded with 10 µM to 10 pM peptide (FIG. 30); full-length, on cells.

Where only a bound is given, the exact number is not on record here.

B1: R44P3E7 (TCR, V domains shown)
Valpha: GEDVEQSLFLSVREGDSSVINCTYTDSSSTYLYWYKQEPGAGLQLLTYIFSNMDMKQDQRLTVLLNKKDKHLSLRIADTQTGDSAIYFCAEINNNARLMFGDGTQLVVKP
Vbeta: AAGVIQSPRHLIKEKRETATLKCYPIPRHDTVYWYQQGPGQDPQFLISFYEKMQSDKGSIPDRFSAQQFSDYHSELNMSSLELGDSALYFCASSPPDQNTQYFGPGTRLTVL
For the molecule B1, the EC50 of peptide in assay [1] was determined as 0.86 nM.

B2: R49P2B7 (TCR, V domains shown)
Valpha: AQSVTQLGSHVSVSEGALVLLRCNYSSSVPPYLFWYVQYPNQGLQLLLKYTTGATLVKGINGFEAEFKKSETSFHLTKPSAHMSDAAEYFCAVRIFGNEKLTFGTGTRLTIIP
Vbeta: DVKVTQSSRYLVKRTGEKVFLECVQDMDHENMFWYRQDPGLGLRLIYFSYDVKMKEKGDIPEGYSVSREKKERFSLILESASTNQTSMYLCASSLMGELTGELFFGEGSRLTVL
Regarding B2, in assay [2], the EC50 of peptide was > 83.2 nM.

B3: R40P1C2 (TCR, V domains shown)
Valpha: AQTVTQSQPEMSVQEAETVTLSCTYDTSESDYYLFWYKQPPSRQMILVIRQEAYKQQNATENRFSVNFQKAAKSFSLKISDSQLGDAAMYFCAYLNYQLIWGAGTKLIIKP
Vbeta: EPEVTQTPSHQVTQMGQEVILRCVPISNHLYFYWYRQILGQKVEFLVSFYNNEISEKSEIFDDQFSVERPDGSNFTLKIRSTKLEDSAMYFCASSEMTAVGQYFGPGTRLTVT
In turn, B3 yielded an EC50 of peptide in assay [3] of 1.94 nM.

B4: R59P2A7 (TCR, V domains shown)
Valpha: QKEVEQNSGPLSVPEGAIASLNCTYSDRGSQSFFWYRQYSGKSPELIMSIYSNGDKEDGRFTAQLNKASQYVSLLIRDSQPSDSATYLCAVQPHDMRFGAGTRLTVKP
Vbeta: SQTIHQWPATLVQPVGSPLSLECTVEGTSNPNLYWYRQAAGRGLQLLFYSVGIGQISSEVPQNLSASRPQDRQFILSSKKLLLSDSGFYLCAWSGLVAEQFFGPGTRLTVL
B4 returned an EC50 of peptide in assay [4] of 0.86 nM.
